The values below come from patent publication CN115466329A (GUANGDONG FAPON PHARMACEUTICAL CO LTD, dated 2022).

Assay [1] concerns the target T1, 小鼠PD1 expressed on CHO cells (CHO-mousePD1) (mouse, UniProt Q02242 25-288).
T1 construct: whole, on cells; also called CHO-mPD1
T1 sequence (looked up): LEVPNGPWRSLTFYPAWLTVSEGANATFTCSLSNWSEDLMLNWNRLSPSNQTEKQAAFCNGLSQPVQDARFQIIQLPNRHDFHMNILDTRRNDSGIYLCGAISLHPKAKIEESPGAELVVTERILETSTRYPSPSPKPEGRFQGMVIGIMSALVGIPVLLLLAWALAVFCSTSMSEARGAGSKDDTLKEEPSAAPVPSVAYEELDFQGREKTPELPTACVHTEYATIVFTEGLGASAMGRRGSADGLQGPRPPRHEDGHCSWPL
The experiment in a line: flow cytometry on CHO-mousePD1 cells.

Another assay has as its target T2, PD-1-his(ACRO)重组蛋白 (UniProt Q15116 25-167).
T2 construct: Bought (ACRO); not shown: his tag
The assay can be described thus: BLI (ForteBio Octet QKe), PD-1-his loaded on HIS1K sensor, antibody in solution.

In assay [2] the target is T3, CTLA-4 (ACRO) coated on the ELISA plate (UniProt P16410 37-162, limits assumed).
T3 sequence (looked up): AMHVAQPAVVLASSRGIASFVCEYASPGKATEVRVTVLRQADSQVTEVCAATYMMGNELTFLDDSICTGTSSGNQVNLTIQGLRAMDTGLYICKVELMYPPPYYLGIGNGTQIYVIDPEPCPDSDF
The assay can be described thus: ELISA, antigen coated at 1μg/ml. On the technique in general: An ELISA detects its analyte on a solid surface through an enzyme-linked reagent.

Assay [3] has as its target T4, ICOS (ACRO) coated on the ELISA plate (UniProt Q9Y6W8 21-140).
T4 sequence (looked up): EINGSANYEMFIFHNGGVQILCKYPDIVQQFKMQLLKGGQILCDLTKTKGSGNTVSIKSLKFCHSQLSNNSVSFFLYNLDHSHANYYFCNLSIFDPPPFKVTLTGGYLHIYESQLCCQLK
The experiment in a line: ELISA, antigen coated at 1μg/ml.

Assay [4] has as its target CD28 (ACRO) coated on the ELISA plate (UniProt P10747 19-152). The assay can be described thus: ELISA, antigen coated at 1μg/ml.

T2 sequence (Q15116 25-167 limits assumed): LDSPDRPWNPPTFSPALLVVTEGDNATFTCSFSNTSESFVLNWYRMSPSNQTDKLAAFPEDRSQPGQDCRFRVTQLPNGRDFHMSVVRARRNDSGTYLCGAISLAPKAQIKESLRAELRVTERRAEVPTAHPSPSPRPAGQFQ
CD28 (ACRO) coated on the ELISA plate, sequence (P10747 19-152 limits assumed): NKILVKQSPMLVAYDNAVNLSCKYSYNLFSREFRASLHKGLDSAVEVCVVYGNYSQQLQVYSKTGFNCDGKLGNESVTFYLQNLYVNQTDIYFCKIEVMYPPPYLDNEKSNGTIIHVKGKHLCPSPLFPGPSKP

B1: 抗PD-1鼠单抗PD-1-76-C2 (antibody, V domains shown)
VH: QIQLVQSGPELKKPGETVKISCKASGYTFTNYGMNWVKQAPGKGLKWMGWINTHTGEPTYADDFKGRFAFSLETSASTAYLQIKNLKNEDVATYFCTKEGEGIGFAYWGQGTLVTVSA
VL: DVLMTQTPLSLPVSLGDQASISCRSSQSIVYSNGKTYLEWYLQKPGQSPKLLIYKVSNRFSGVPDRFSGSGSGTDFTLKISRVEAEDLGVYYCFQGSHVPNTFGGGTKLEIKR
notes: Mouse monoclonal antibody from a hybridoma; an mIgG1 isotype control was used; also called PD-76-C2; 抗人PD-1鼠单抗
By Kd is commonly meant the free concentration of one partner at which half of the binding sites on the other are occupied at equilibrium, for simple one-to-one binding. Read a low Kd as tighter binding. As a reminder, the koff is the rate constant with which the complex falls apart. High values mean a short-lived complex, low ones a long-lived complex. The kon is a measure of how fast the partners come together. The low end stands for slower complex formation, the high end for faster complex formation. On to B1, for which the binding result in assay [1] is recorded as “no binding (tested: 初始浓度为10μg/ml)”; in assay [2], “no binding (tested: 10μg/ml)”; in assay [3], “no binding (tested: 10μg/ml)”; in assay [4], “no binding (tested: 10μg/ml)”. The Kd with PD-1-his(ACRO)重组蛋白 was less than 1 pM. Also, the koff with PD-1-his(ACRO)重组蛋白 is less than 1e-07 s⁻¹. Further, the association rate constant (kon) with PD-1-his(ACRO)重组蛋白 was 771000 M⁻¹ s⁻¹.
